B1: Azoarcus group I ribozyme (parent)
chain: GUGCCUUGCGCCGGGAAACCACGCAAGGGAUGGUGUCAAAUUCGGCGAAACCUAAGCGCCCGCCCGGGCGUAUGGCAACGCCGAGCCAAGCUUCGGCGCCUGCGCCGAUGAAGGUGUAGAGACUAGACGGCACCCACCUAAGGCAAACGCUAUGGUGAAGGCAUAGUCCAGGGAGUGGCGAAAGUCACACAAACCGG

Variants of: B1
Experiment: reverse-splicing fitness (ratio to wild type); higher = more active; in vitro selection; Mg2+ level not given
Method in brief: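 An in vitro group I ribozyme library with randomized positions was T7-transcribed and gel-purified. In triplicate, 10 pmol RNA in EPPS pH 7.5 was reacted with 50 pmoles of a 30-nt RNA substrate for 1 h at 37 °C across several added MgCl2 levels (1–48 mM), then stopped with EDTA. Products were reverse transcribed from a substrate-complementary primer, PCR-amplified and sequenced (HiSeq 4000). Fitness is a variant's read proportion after selection over that before, normalised to wild type.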
In the case of C82G A120U A145G C150U C169G U176C, the reverse-splicing fitness is reported as 0.00419. Variant C82G A120U A145G C150U C169G U176G has a reverse-splicing fitness of 0.00186. In the case of C82G A120U A145G C150U C169G U176A, the reverse-splicing fitness is reported as 0.00552. With C82G A120U A145U C150G C169A U176C the reverse-splicing fitness was 0.00187. With C82G A120U A145U C150G C169A U176G the reverse-splicing fitness was 0.00205. C82G A120U A145U C150G C169A U176A gave a reverse-splicing fitness of 0.0026. For C82G A145C C150G C169U U176G, the reverse-splicing fitness was 0.00486. C82G A145C C150G C169U U176A showed a reverse-splicing fitness of 0.0101. With C82G A145C C150G C169U U176C the reverse-splicing fitness was 0.00852. For C82G A120U A145C C169G, the reverse-splicing fitness was 0.00562. For C82G A120U A145C C169A, the reverse-splicing fitness was 0.00201. For C82G A120U A145C C169U, the reverse-splicing fitness was 0.00694. C82G A120U U176A showed a reverse-splicing fitness of 0.0729. C82G A120U U176C gave a reverse-splicing fitness of 0.113. With C82G A120U U176G the reverse-splicing fitness was 0.0201. In the case of C82G A145G C150U C169U U176G, the reverse-splicing fitness is reported as 0.0045. C82G A145G C150U C169U U176C gave a reverse-splicing fitness of 0.015. For C82G A145G C150U C169U U176A, the reverse-splicing fitness was 0.0145. C82G A120U C150A C169A gave a reverse-splicing fitness of 0.00401. C82G A120U C150A C169U gave a reverse-splicing fitness of 0.00426. Variant C82G A120U C150A C169G has a reverse-splicing fitness of 0.00295. Variant C82G A145G C150A U176C has a reverse-splicing fitness of 0.0688. In the case of C82G A145G C150A U176G, the reverse-splicing fitness is reported as 0.0244. With C82G A145G C150A U176A the reverse-splicing fitness was 0.0509. With C82G A145C C150U C169U U176G the reverse-splicing fitness was 0.00436. With C82G A145C C150U C169U U176C the reverse-splicing fitness was 0.00905. Variant C82G A145C C150U C169U U176A has a reverse-splicing fitness of 0.0142. C82G A145G C150U showed a reverse-splicing fitness of 0.401. C82G A145G C150A gave a reverse-splicing fitness of 0.0607. C82G A145G C150G showed a reverse-splicing fitness of 0.05. C82G A120U A145U U176G gave a reverse-splicing fitness of 0.02. In the case of C82G A120U A145U U176C, the reverse-splicing fitness is reported as 0.116. Variant C82G A120U A145U U176A has a reverse-splicing fitness of 0.0782. In the case of C82G A120U A145G C150U C169G, the reverse-splicing fitness is reported as 0.00765. C82G A120U A145G C150U C169A gave a reverse-splicing fitness of 0.00606. With C82G A120U A145G C150U C169U the reverse-splicing fitness was 0.00803. In the case of C82G A145G C150G C169G U176C, the reverse-splicing fitness is reported as 0.0146. C82G A145G C150G C169G U176G showed a reverse-splicing fitness of 0.00613. For C82G A145G C150G C169G U176A, the reverse-splicing fitness was 0.0113. C82G A120U A145U C150U U176A gave a reverse-splicing fitness of 0.0449. C82G A120U A145U C150U U176G showed a reverse-splicing fitness of 0.0126. C82G A120U A145U C150U U176C gave a reverse-splicing fitness of 0.0591. With C82G A120U C169U U176C the reverse-splicing fitness was 0.00518. Variant C82G A120U C169U U176A has a reverse-splicing fitness of 0.00406. For C82G A120U C169U U176G, the reverse-splicing fitness was 0.00154. With C82G A145G C169A U176C the reverse-splicing fitness was 0.0249. C82G A145G C169A U176A gave a reverse-splicing fitness of 0.0187. C82G A145G C150G U176C gave a reverse-splicing fitness of 0.0452. For C82G A145G C150G U176A, the reverse-splicing fitness was 0.0343. C82G A145G C150G U176G gave a reverse-splicing fitness of 0.0127. C82G A145C C150G C169A U176G gave a reverse-splicing fitness of 0.00487. C82G A145C C150G C169A U176C gave a reverse-splicing fitness of 0.00634. In the case of C82G A145C C150G C169A U176A, the reverse-splicing fitness is reported as 0.00807. Variant C82G A120U A145U C150A C169U U176A has a reverse-splicing fitness of 0.00242. For C82G A120U A145U C150A C169U U176C, the reverse-splicing fitness was 0.0022. Work on C82G A120U A145U C150A C169U U176G yielded a reverse-splicing fitness of 0.00185. C82G A145C C150U C169G U176C gave a reverse-splicing fitness of 0.00942. Work on C82G A145C C150U C169G U176A yielded a reverse-splicing fitness of 0.019. In the case of C82G A145C C150U C169G U176G, the reverse-splicing fitness is reported as 0.00533. With C82G A120U C150U C169U U176G the reverse-splicing fitness was 0.00193. With C82G A120U C150U C169U U176C the reverse-splicing fitness was 0.00336. For C82G A120U C150U C169U U176A, the reverse-splicing fitness was 0.00509. For C82G A145C C150A C169U, the reverse-splicing fitness was 0.00875. For C82G A145C C150A C169A, the reverse-splicing fitness was 0.00782. With C82G A145C C150A C169G the reverse-splicing fitness was 0.00807. For C82G A120U A145U C150U C169G U176G, the reverse-splicing fitness was 0.00167. With C82G A120U A145U C150U C169G U176C the reverse-splicing fitness was 0.00331. In the case of C82G A120U A145U C150U C169G U176A, the reverse-splicing fitness is reported as 0.00248. For C82G A120U C150U C169A U176G, the reverse-splicing fitness was 0.00166. Work on C82G A120U C150U C169A U176A yielded a reverse-splicing fitness of 0.00417. With C82G A120U C150U C169A U176C the reverse-splicing fitness was 0.00267. C82G A145G C150G C169U U176A showed a reverse-splicing fitness of 0.0126. With C82G A145G C150G C169U U176C the reverse-splicing fitness was 0.0131. Variant C82G A145G C150G C169U U176G has a reverse-splicing fitness of 0.0072. C82G A145C C150A C169A U176G showed a reverse-splicing fitness of 0.00515. Variant C82G A145C C150A C169A U176A has a reverse-splicing fitness of 0.0106. Variant C82G A145C C150A C169A U176C has a reverse-splicing fitness of 0.0049. C82G A145G C150G C169G gave a reverse-splicing fitness of 0.00848. Work on C82G A145G C150G C169A yielded a reverse-splicing fitness of 0.00944. Variant C82G A145G C150G C169U has a reverse-splicing fitness of 0.011. Variant C82G A145G C150A C169U U176C has a reverse-splicing fitness of 0.0141. C82G A145G C150A C169U U176A gave a reverse-splicing fitness of 0.0137. C82G A145G C150A C169U U176G showed a reverse-splicing fitness of 0.00552.
